Source: patent publication US20160031958A1, “METHODS AND COMPOSITIONS USEFUL IN MANIPULATING THE STABILITY OF RE1 SILENCING TRANSCRIPTION FACTOR” (OREGON HEALTH & SCIENCE UNIVERSITY, priority 2014, published 2016)

Key:
E12.5 neurospheres = assay: Neuronal differentiation of E12.5 neurospheres (MAP2 immunostaining); type: cell-based, mouse; details: neurospheres differentiated 10 d, versus control (595-694) peptide, p<0.0001
Source text: FIG. 8A is a photomicrograph of representative immuno-labeled E12.5 neurospheres transfected with REST (810-910)- or control peptide-IRES-GFP, sorted, and then allowed to differentiate for 10 d in culture. White, DAPI nuclei; Red, MAP2 antibody.
Results are from three different transfections. Fields were selected from multiple places on the cover slip, number of cells indicated on bars (p<0.0001, unpaired t test).
Previous studies indicate that persistent REST expression in progenitors inhibits neuronal differentiation. Therefore, it was assessed whether stabilization of REST, via expression of the unmutated REST (810-910) peptide in neural progenitors, would also hinder neuronal differentiation. Mouse neurosphere cultures were immunostained for Microtubule Associated […] 2 (MAP2), a marker of mature neurons, at days 0 and 10 post-transfection. On day 0 there was negligible MAP2 signal and no significant difference between the two conditions.
HEK293T cells were transfected using Lipofectamine 2000 (Life Technologies) following the manufacturer's instructions. PC12 tet, PC12 tet-on FLAG-REST, and HEK293T cell lines were maintained as described in Ballas N et al 2001 supra. […]

endogenous REST protein = assay: Western blot of endogenous REST protein levels in transfected E12.5 neurospheres; type: cell-based; details: E12.5 mouse cortical neurospheres after transfection; MG132 4 h; compared to control peptides
Method: FIG. 7B is an image of a Western blot showing endogenous REST protein levels in E12.5 neurospheres after transfection. Lane 1, empty vector; lane 2, control (595-694) peptide; lane 3, REST(810-910) S861/864A peptide; lane 4, REST(810-910) WT peptide; lane 5, empty vector with MG132 treated for 4 h. The blot was probed with anti-mouse-REST antibody and anti-tubulin (loading control) antibodies.
There is a significant difference between REST (810-910) compared to control (595-694) peptide (n=5, p=0.0021) and REST(810-910) compared to S861/864A REST(810-910) (n=5, p=0.046). The difference between MG132 and REST(810-910) is not significant (n=5, p=0.7996, Sidak's multiple comparison test, error bars represent 95% confidence interval).
The Examples above used the REST (810-910) reporter as a surrogate substrate for signaling molecules that target S861/S864 on full-length REST. […]
Whole cell lysates were prepared and immunoprecipitated following the procedures in Ballas N et al, 2001 supra and Nesti E et al, Mol Biol Cell 15, 4073-4088 (2004); incorporated by reference herein. Western blots were performed by standard procedures using antibodies described below and analyzed using anti IgG conjugated to infrared dyes (ThermoFisher) on an Odyssey® infrared fluorescence imager (LiCor). […] Infrared fluorescence was detected on the Odyssey® imager (LiCor) in the 700 nm channel. […]

neural progenitor cells = assay: Cortical neuronal migration after in utero electroporation in rat embryos; type: in vivo; details: cDNA electroporated in utero at E16, harvested E18, 6 embryos, 18 cortical slices
Method: REST protein lacking S861/864 (negative control) and wild-type REST (810-910) peptide (experimental) were expressed in the lateral ventrical of the cortex of rat embryos (E16) by injection and in utero electroporation of the respective cDNA into neural stem cells. The embryos were then allowed to gestate for 48 hours (E18) prior to harvesting. Panel 1 and 2 are representative E18 cortical brain slices expressing REST protein lacking S861/864 (negative control) and wild-type REST protein (experimental).
FIG. 11B is a plot showing that the effect of wild type REST (810-910) peptide on neuronal migration is quantitative. […] No significant difference in neural stem cell migration between the control REST protein lacking S861/864 (negative control) and the wild-type REST (810-910) peptide (experimental) in the SVZ and the intermediate zone (IZ) (Boxes 1 and 2). […] Error bars represent standard deviation, (**P<0.001, *P<0.01 unpaired t test).

B1: REST (810-910) peptide: peptide encoding amino acids 810-to-910 of REST with unmutated S861/S864, expressed from cDNA (protein)
chain: ISKKPPLRKDKKEKSNMQSERARKEQVLIEVGLVPVKDSWLLKESVSTEDLAPPAPPLPKENLREEASGDQKLLNTGEGNKEAPLQKVGAEEADESLPGLA
MAP2-positive cells (E12.5 neurospheres): fewer MAP2-positive cells
Endogenous full-length REST protein levels (endogenous REST protein): significantly stabilized endogenous full-length REST protein
Migration of neural progenitor cells from the SVZ toward the cortical plate (CP) (neural progenitor cells): significantly less migration to the CP
